{"source": "patent US8722052B2", "about": "“Vaccinia virus protein A46 peptide and use thereof” (priority 2008, dated 2014)", "key": {"RAW264.7 cells": {"tested_on": "RAW264.7 cells", "assay": "MTT cell viability assay, RAW264.7", "assay_type": "cell-based, murine", "protocol": "FIGS. 5A and B are bar charts showing the dose-dependent inhibitory effect of A464R on LPS-induced TNFα in murine RAW264.7 cells. A464 (SEQ ID NO. 20) was added to the cells at a concentration of 5, 20 or 50 μM 1 hour before stimulating with 100 ng/ml LPS. Supernatant was collected 24 hours after stimulation and assayed for TNFα by ELISA (A) and cells were assayed for viability by the MTT assay (B.). No peptides were added to the control wells (black bars). Data is representative of at least three experiments each performed in triplicate and is expressed as mean±s.d;\nFIGS. 10A and B are bar charts showing the effect of A464 on poly(I:C)-induced TNFα in murine RAW264.7 cells. Cells were seeded in 96 well plates (1.5×10^5 cells/nil) 24 hours before treatment. A464 (SEQ ID NO. 20) was added to the cells at a concentration of 5, 20 or 50 μM 1 hour before stimulating with 25 μg/ml Poly(I:C). […] Data is representative of at least three experiments each performed in triplicate and is expressed as mean±s.d;\n(§1) Cell viability was measured by assessing mitochondrial function using an MTT (3-(4,5-Dimethylthiazol-2-yl)-2,5-diphenyltetrazolium bromide) assay. […] MTT was then removed and 200 μl per well of dimethyl sulphoxide (DMSO) was added and cells incubated for 20 min at 37° C. in the dark, prior to absorbance being read at 595 nm on a spectrophotometer."}, "TLR4": {"tested_on": "TLR4", "sequence (O00206 24-839)": "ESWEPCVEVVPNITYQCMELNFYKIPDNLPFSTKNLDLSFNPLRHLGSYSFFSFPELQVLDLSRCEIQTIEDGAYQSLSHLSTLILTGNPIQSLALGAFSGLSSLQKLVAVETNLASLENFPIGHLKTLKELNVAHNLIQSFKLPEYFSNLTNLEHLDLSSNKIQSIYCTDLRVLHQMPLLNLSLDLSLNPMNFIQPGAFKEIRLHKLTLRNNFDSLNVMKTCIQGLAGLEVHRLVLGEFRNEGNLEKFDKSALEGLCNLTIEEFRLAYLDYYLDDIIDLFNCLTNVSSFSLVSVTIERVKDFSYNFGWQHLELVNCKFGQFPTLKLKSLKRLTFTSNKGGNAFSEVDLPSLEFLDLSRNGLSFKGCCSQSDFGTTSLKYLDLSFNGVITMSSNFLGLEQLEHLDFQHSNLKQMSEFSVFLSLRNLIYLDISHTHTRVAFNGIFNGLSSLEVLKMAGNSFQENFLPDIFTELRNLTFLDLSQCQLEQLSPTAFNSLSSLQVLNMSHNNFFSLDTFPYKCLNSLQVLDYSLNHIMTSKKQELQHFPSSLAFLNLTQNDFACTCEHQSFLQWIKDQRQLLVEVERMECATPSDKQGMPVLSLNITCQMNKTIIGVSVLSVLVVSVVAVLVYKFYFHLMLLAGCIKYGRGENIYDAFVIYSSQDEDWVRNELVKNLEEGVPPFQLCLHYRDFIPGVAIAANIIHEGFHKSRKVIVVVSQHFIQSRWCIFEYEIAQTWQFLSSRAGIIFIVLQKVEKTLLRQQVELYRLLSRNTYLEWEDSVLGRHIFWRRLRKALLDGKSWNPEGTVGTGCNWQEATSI", "sequence (Q9Y6Y9 17-160 partner limits assumed)": "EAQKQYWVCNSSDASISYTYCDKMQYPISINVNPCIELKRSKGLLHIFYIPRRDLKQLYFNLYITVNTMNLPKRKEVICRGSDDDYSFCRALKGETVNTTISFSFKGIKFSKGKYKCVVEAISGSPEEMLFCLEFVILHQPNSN", "assay_type": "cell-based, human", "details": "THP-1; for inhibition of LPS-induced TNFα production: 6 h"}, "THP-1 cells": {"tested_on": "THP-1 cells", "assay": "MTT cell viability assay, THP-1", "assay_type": "cell-based, human", "details": "peptide 5 and 10 μM, 10 ng/ml LPS", "protocol": "FIGS. 7A and B are bar charts showing the effect of A464 on TNFα production and cell viability of human THP-1 cells stimulated with LPS. Cells were seeded in 96 well plates (3×10^5 cells/ml) and differentiated with 200 nM PMA for 24 hours before treatment. A464 (SEQ ID NO. 20) was added to the cells at a concentration of 5 or 10 μM 1 hour before stimulating with 10 ng/ml LPS. Supernatants were collected 6 hours after stimulation and assayed for TNFα by ELISA (A) and cells were assayed for viability by the MTT assay (B.). No peptides were added to the control wells (black bars). Data is representative of at least three experiments each performed in triplicate and is expressed as mean±s.d;\nFIGS. 9A and B are bar charts showing the effect of A464 on Pam3CysK4-induced TNFα in human THP-1 cells. Cells were seeded in 96 well plates (3×10^5 cells/ml) and differentiated with 200 nM PMA for 24 hours before treatment. […] Data is representative of at least three experiments each performed in triplicate and is expressed as mean±s.d;\nas §1"}, "TLR3": {"target": "T1, TLR3 (Mus musculus, UniProt Q99MB1)", "T1 construct": "endogenous in cells; host or cells: RAW264.7", "T1 sequence (Q99MB1 26-905)": "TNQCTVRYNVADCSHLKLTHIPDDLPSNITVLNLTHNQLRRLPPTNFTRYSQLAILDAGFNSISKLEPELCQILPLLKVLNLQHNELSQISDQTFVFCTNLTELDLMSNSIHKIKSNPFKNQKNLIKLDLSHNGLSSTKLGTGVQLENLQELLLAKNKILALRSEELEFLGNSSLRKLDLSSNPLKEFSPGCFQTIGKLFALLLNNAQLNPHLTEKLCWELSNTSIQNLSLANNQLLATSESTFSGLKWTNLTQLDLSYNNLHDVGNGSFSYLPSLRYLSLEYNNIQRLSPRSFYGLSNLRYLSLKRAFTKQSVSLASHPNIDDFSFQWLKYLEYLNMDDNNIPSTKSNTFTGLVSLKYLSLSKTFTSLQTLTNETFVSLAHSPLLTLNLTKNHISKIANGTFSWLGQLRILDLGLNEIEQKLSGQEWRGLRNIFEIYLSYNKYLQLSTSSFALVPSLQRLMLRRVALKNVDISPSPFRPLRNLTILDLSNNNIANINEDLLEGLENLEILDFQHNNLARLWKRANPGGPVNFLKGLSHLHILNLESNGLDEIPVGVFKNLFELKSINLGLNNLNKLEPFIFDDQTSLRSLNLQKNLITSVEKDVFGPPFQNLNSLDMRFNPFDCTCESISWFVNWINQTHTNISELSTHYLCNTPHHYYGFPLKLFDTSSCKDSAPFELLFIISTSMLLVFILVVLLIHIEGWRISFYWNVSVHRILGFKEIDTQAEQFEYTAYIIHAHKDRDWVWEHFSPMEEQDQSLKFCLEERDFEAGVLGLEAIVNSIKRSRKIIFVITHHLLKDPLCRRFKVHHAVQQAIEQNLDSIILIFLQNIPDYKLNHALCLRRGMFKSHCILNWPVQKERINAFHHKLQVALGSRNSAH", "assay": "poly(I:C)-induced TNFα in RAW264.7 cells, ELISA", "assay_type": "cell-based, murine", "details": "peptide 5, 20 or 50 μM, 25 μg/ml Poly(I:C), 24 h", "protocol": "FIGS. 10A and B are bar charts showing the effect of A464 on poly(I:C)-induced TNFα in murine RAW264.7 cells. Cells were seeded in 96 well plates (1.5×10^5 cells/nil) 24 hours before treatment. […] Supernatants were collected 24 hours after stimulation and assayed for TNFα by ELISA (A) and cells were assayed for viability by the MTT assay (B). No peptides were added to the control wells (black bars). Data is representative of at least three experiments each performed in triplicate and is expressed as mean±s.d;\nCytokine and chemokine production from cells or mouse serum was measured by ELISA using Duoset kits from R&D systems, according to the manufacturer's instructions.\nIn order to determine whether A464 (SEQ ID No. 20) was specific for TLR4, other TLR pathways were next assayed for sensitivity to A464 (SEQ ID No. 20). A scrambled version of A464 (SEQ ID No. 20) peptide was designed to use as a further control peptide, and this had the sequence: […] (ConA464, SEQ ID No. 32). The A464R (SEQ ID No. 20) and ConA464 (SEQ ID No. 32) peptides were assayed for inhibition of TLR2 signalling in THP-1 cells. Pam3CysK4 (S-(2,3-bis(palmitoyloxy)-(2-RS)-propyl)-N-palmitoyl-(R)-Cys-(S)-Ser-(S)-Lys(4)) is a synthetic tripalmitoylated lipopeptide that is recognized by a TLR2/TLR1 heterodimer and leads to activation of NFκB through a Mal- and MyD88-dependent pathway. […]"}}, "note": "Like-named read-outs stand apart in the source and are kept apart here."}
{"sequence": "KYSFKLILAEYRRRRRRRRR [Peptide A464]", "values": [{"measurement": "toxicity (MTT) in the presence of LPS", "setting": "RAW264.7 cells; 100 ng/ml LPS, 24 h", "value": "no toxicity at the concentrations of 5 and 20 μM"}, {"measurement": "toxicity (MTT) in the absence of LPS", "setting": "RAW264.7 cells; no LPS", "value": "some cytotoxicity at 20 μM"}, {"measurement": "inhibition of LPS-induced hTNFα production, peptide added after LPS", "setting": "TLR4; 5 and 10 μM peptide added 1 hour after LPS stimulation", "value": "almost completely inhibited"}, {"measurement": "inhibition of LPS-induced TNFα production", "setting": "TLR4; peptide 5 or 10 μM 1 h before 10 ng/ml LPS", "value": "complete inhibition of TLR4 was achieved at 5 and 10 μM"}, {"measurement": "inhibition of LPS-induced TNFα production", "setting": "TLR4; peptide 20 or 40 μM 1 h before 100 ng/ml LPS", "value": "20 μM A464 (SEQ ID No. 20) inhibited TLR4-mediated TNFα production"}, {"measurement": "cytotoxicity (MTT)", "setting": "THP-1 cells", "value": "no cytotoxicity"}, {"measurement": "inhibition of poly(I:C)-induced mTNFα production", "setting": "TLR3", "value": "some inhibition of mTNFα production in response to stimulation with 25 mg/ml Poly(I:C) was seen but only at a concentration of 50 μM"}]}
